Data reported in publication PMC5818423.

B1: Human wild-type adenosine deaminase (ADA) [human] / A2AR-Nluc-spacer (human adenosine receptor fused to NanoLuc on the N-terminal end, with spacer) [human] (parent)
chain 1: MAQTPAFDKPKVELHVHLDGSIKPETILYYGRRRGIALPANTAEGLLNVIGMDKPLTLPDFLAKFDYYMPAIAGCREAIKRIAYEFVEMKAKEGVVYVEVRYSPHLLANSKVEPIPWNQAEGDLTPDEVVALVGQGLQEGERDFGVKARSILCCMRHQPNWSPKVVELCKKYQQQTVVAIDLAGDETIPGSSLLPGHVQAYQEAVKSGIHRTVHAGEVGSAEVVKEAVDILKTERLGHGYHTLEDQALYNRLRQENMHFEICPWSSYLTGAWKPDTEHAVIRLKNDQANYSLNTDDPLIFKSTLDTDYQMTKRDMGFTEEEFKRLNINAAKSSFLPEDEKRELLDLLYKAYGMPPSASAGQNL
chain 2: MPIMGSSVYITVELAIAVLAILGNVLVCWAVWLNSNLQNVTNYFVVSLAAADIAVGVLAIPFAITISTGFCAACHGCLFIACFVLVLTQSSIFSLLAIAIDRYIAIRIPLRYNGLVTGTRAKGIIAICWVLSFAIGLTPMLGWNNCGQPKEGKNHSQGCGEGQVACLFEDVVPMNYMVYFNFFACVLVPLLLMLGVYLRIFLAARRQLKQMESQPLPGERARSTLQKEVHAAKSLAIIVGLFALCWLPLHIINCFTFFCPDCSHAPLWLMYLAIVLSHTNSVVNPFIYAYRIREFRQTFRKIIRSHVLRQQEPFKAAGTSARVLAAHGSDGEQVSLRLNGHPPGVWANGSAPHPERRPNGYALGLVSGGSAQESQGNTGLPDVELLSHELKGVCPEPPGLDDPLAQDGAGVS

Variants of: B1
Experiment: NanoBRET between mixed cells (A2AR-Nluc-spacer cells + CD26-YFP cells bridged by ADA)
Settings: ADA at 1 μg/ml, 10 min incubation in HBSS without shaking, HEK-293T cells, untreated (0) control est. 4.6 mBU, parent: 35, read off a plot
In the case of chain 1 MAQTPAFDKPKVELHVHLDGSIKPETILYYGRRRGIALPANTAEGLLNVIGMDKPLTAPDFLAKFDYYMPAIAGCREAIKRIAYEFVEMKAKEGVVYVEVRYSPHLLANSKVEPIPWNQAEGDLTPDEVVALVGQGLQEGERDFGVKARSILCCMRHQPNWSPKVVELCKKYQQQTVVAIDLAGDETIPGSSLLPGHVQAYQEAVKSGIHRTVHAGEVGSAEVVKEAVDILKTERLGHGYHTLEDQALYNRLRQENMHFEICPWSSYLTGAWKPDTEHAVIRLKNDQANYSLNTDDPLIFKSTLDTDYQMTKRDMGFTEEEFKRLNINAAKSSFLPEDEKRELLDLLYKAYGMPPSASAGQNL [chain 1 L58A], the response is reported as 7.3 mBU. chain 1 MAQTPAFDKPKVELHVHLDGSIKPETILYYGRRRGIALPANTAEGLLNVIGMDKPLTLPDFAAKFDYYMPAIAGCREAIKRIAYEFVEMKAKEGVVYVEVRYSPHLLANSKVEPIPWNQAEGDLTPDEVVALVGQGLQEGERDFGVKARSILCCMRHQPNWSPKVVELCKKYQQQTVVAIDLAGDETIPGSSLLPGHVQAYQEAVKSGIHRTVHAGEVGSAEVVKEAVDILKTERLGHGYHTLEDQALYNRLRQENMHFEICPWSSYLTGAWKPDTEHAVIRLKNDQANYSLNTDDPLIFKSTLDTDYQMTKRDMGFTEEEFKRLNINAAKSSFLPEDEKRELLDLLYKAYGMPPSASAGQNL [chain 1 L62A] was tested, and the response was 6.7 mBU.
